Positions count from the first letter of the chain named. “Also recorded” adds a separate entry of the source.
B1: Leu-131-Arg: single point mutant of human JNK1 (SEQ ID NO: 1) (protein)
chain: MSRSKRDNNFYSVEIGDSTFTVLKRYQNLKPIGSGAQGIVCAAYDAILERNVAIKKLSRPFQNQTHAKRAYRELVLMKCVNHKNIIGLLNVFTPQKSLEEFQDVYIVMELMDANLCQVIQMELDHERMSYRLYQMLCGIKHLHSAGIIHRDLKPSNIVVKSDCTLKILDFGLARTAGTSFMMTPYVVTRYYRAPEVILGMGYKENVDLWSVGCIMGEMVCHKILFPGRDYIDQWNKVIEQLGTPCPEFMKKLQPTVRTYVENRPKYAGYSFEKLFPDVLFPADSEHNKLKASQARDLLSKMLVIDASKRISVDEALQHPYINVWYDPSEAEAPPPKIPDKQLDEREHTIEEWKELIYKEVMDLEERTKNGVIRGQPSPLAQVQQ
modifications: homo sapiens
B2: Tyr-320-His: single point mutant of human JNK1 (SEQ ID NO: 1) (protein)
chain: B1 chain with R131L, Y320H
modifications: homo sapiens
B3: wildtype JNK1: FLAG-tagged wild-type human JNK1 (SEQ ID NO: 1) expressed from pCMV-FLAG-JNK1 (protein)
chain: B1 chain with R131L
modifications: FLAG tag; homo sapiens
B4: Arg-309-Trp: single point mutant of human JNK1 (SEQ ID NO: 1) (protein)
chain: B1 chain with R131L, R309W
modifications: homo sapiens

Legend:
[1] = target: T1, MKK7 (Mus musculus, UniProt Q8CE90); assay: Phospho-blotting for dual-phosphorylated JNK in COS cells co-transfected with MKK7; format: cell-based; settings: antibody to dual-phosphorylated JNK
T1 construct: expressed in transfected cells; host or cells: COS cells
T1 sequence (Q8CE90 1-419 isoform Q8CE90-2): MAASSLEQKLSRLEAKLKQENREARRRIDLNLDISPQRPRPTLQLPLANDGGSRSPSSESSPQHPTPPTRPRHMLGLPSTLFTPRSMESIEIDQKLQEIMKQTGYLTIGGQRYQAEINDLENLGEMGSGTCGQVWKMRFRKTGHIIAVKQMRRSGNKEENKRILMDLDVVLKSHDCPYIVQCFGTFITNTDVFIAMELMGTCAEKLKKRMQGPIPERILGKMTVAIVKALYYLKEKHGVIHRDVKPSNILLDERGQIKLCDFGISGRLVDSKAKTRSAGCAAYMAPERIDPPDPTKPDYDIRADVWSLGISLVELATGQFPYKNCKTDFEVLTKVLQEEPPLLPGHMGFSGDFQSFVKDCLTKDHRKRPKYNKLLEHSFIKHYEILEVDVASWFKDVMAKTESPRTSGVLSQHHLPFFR

[2] = test system: GST-MKK4(ED); assay: In vitro phosphorylation (activation) of immunoprecipitated JNK by constitutively active MKK4; format: biochemical; settings: [32P]-ATP, relative to autophosphorylation
Protocol: FIG. 15a is a representation showing that JNK mutants were not activated by constitutively-active MKK4 (MKK4(ED)) or MKK7. […] JNK proteins were immunoprecipitated from transfected cell lysates, and immunoprecipitates were used as the substrates in in vitro kinase assays with GST-MKK4(ED). Following separation by SDS-PAGE, activation of JNK and mutant proteins was assessed by autoradiography (upper panel) (n=2). Coomassie Blue staining (lower panel) confirmed substrate loading.
FLAG-JNK1 proteins were immunoprecipitated by addition of anti-FLAG M2 (SIGMA) and incubation for 1 h on ice and then addition of Protein G-Sepharose and incubation at 4° C. for 2 h with rotation. Immunocomplexes were washed three times with lysis buffer, then once with reaction buffer (20 mM HEPES, 20 mM MgCl2, 20 mM β-glycerophosphate, 500 μM DTT, 100 μM Na3VO4; pH 7.6). For assays of JNK activity, the washed complexes were resuspended in 40 μL of reaction buffer containing 10 μg GST-c-Jun (1-135), 20 μM ATP and 1 μCi [λ-^32P]ATP and incubated at 30° C. for 30 min. Reactions were stopped by addition of 3× SDS-PAGE Sample Buffer and proteins were separated by SDS-PAGE. JNK activity towards GST-c-Jun (1-135) was visualized by autoradiography and quantitated by Cerenkov counting. For assays of JNK activation, the washed beads were incubated with 30 μL of reaction buffer containing 20 μM ATP, 5 μCi [λ-^32P]ATP and 1 μg of GST-MKK4(ED) at 30° C. for 1 h with occasional mixing. After removal of the supernatant, the beads were washed in 200 μl ice-cold lysis buffer and then heated for 5 min at 100° C. in 15 μL of 3× SDS-PAGE sample buffer, prior to separation by SDS-PAGE. Gels were Coomassie-stained, dried and used for autoradiography. Gel bands corresponding to FLAG-JNK were excised from the gels and their radioactivity quantitated by Cerenkov counting. Where immunoprecipitated GST-MKK7β1 was used to activate JNK, reactions were performed as above, but with 1 μCi [λ-^32P]ATP and incubation at 30° C. for 30 min.

[3] = target: T2, TI-JIP (Homo sapiens, UniProt Q9UQF2); assay: Yeast two-hybrid screening / β-galactosidase overlay assay of JNK1 point mutants for interaction with TI-JIP; format: cell-based; settings: single point mutants of JNK1, full-length expression confirmed by Western blot
T2 construct: Oligonucleotides encoding TI-JIP were annealed; expressed in transfected cells; host or cells: yeast diploids, RFY 206 (pSH18-34, pGILDA-TI-JIP) mated to PRT 49 (JNK mutants in pJG4-5)

[4] = test system: GST-c-Jun(1-135); assay: In vitro kinase assay of FLAG-immunoprecipitated JNK1 from transfected COS cells towards GST-c-Jun(1-135); format: biochemical
Protocol: FIG. 14b is a representation showing a typical autoradiograph (upper panel) illustrating phosphorylation of GST-c-Jun(1-135) by wild-type (WT) JNK and mutants (n=2) for COS cells transfected as described in the legend to FIG. 14a. Transfected cells were incubated without sorbitol or exposed to hyperosmotic shock (0.5 M sorbitol, 30 min) prior to lysis. FLAG-tagged JNK1 and mutants were immunoprecipitated from cell lysates and then assayed for activity towards GST-c-Jun(1-135) using in vitro kinase assays. Coomassie Blue staining (lower panel) confirmed substrate loading.
FIG. 14c is a photographic representation showing a typical autoradiograph (upper panel) illustrating phosphorylation of GST-c-Jun(1-135) by wild-type (WT) JNK and mutants (n=2) for COS cells transfected as described in the legend to FIG. 14a, or co-transfected with a constitutively-active MEKK1 construct (CA-MEKK1). […]
FLAG-JNK1 proteins were immunoprecipitated by addition of anti-FLAG M2 (SIGMA) and incubation for 1 h on ice and then addition of Protein G-Sepharose and incubation at 4° C. for 2 h with rotation. […] JNK activity towards GST-c-Jun (1-135) was visualized by autoradiography and quantitated by Cerenkov counting. […] Gel bands corresponding to FLAG-JNK were excised from the gels and their radioactivity quantitated by Cerenkov counting. […]

Molecule	phosphorylation/activation of JNK by MKK7 [1]	phosphorylation/activation of JNK by active MKK4 [2]	interaction of JNK1 mutant with TI-JIP [3]	interaction of JNK1 mutant with TI-JIP ([3]; listed as L131→R131)	increase in c-Jun phosphorylation relative to cells transfected with JNK alone ([4]; COS cells co-transfected with constitutively-active MEKK1 (CA-MEKK1))	activation of c-Jun phosphorylation over corresponding unstimulated cells ([4]; COS cells, hyperosmotic shock 0.5 M sorbitol, 30 min)
B1	impaired in their activation	impaired in their activation	incapable of interaction with TI-JIP; also recorded: did not interact with TI-JIP	prevent interaction of JNK with TI-JIP		
B2		impaired in their activation				
B3	strongly phosphorylated by MKK7	increased the phosphorylation			240 fold	5.5 fold
B4		impaired in their activation				
